Source: PMC11253609, “Ancient nitrogenases are ATP dependent” (mBio, 2024)
One block for each molecule: values may come before it.

Columns and labels:
[1] = target: T1, Extant Strep-NifD2K2 (dinitrogenase, MoFe protein), Azotobacter vinelandii strain DJ2102 (Azotobacter vinelandii) (UniProt P07328)
T1 sequence 1: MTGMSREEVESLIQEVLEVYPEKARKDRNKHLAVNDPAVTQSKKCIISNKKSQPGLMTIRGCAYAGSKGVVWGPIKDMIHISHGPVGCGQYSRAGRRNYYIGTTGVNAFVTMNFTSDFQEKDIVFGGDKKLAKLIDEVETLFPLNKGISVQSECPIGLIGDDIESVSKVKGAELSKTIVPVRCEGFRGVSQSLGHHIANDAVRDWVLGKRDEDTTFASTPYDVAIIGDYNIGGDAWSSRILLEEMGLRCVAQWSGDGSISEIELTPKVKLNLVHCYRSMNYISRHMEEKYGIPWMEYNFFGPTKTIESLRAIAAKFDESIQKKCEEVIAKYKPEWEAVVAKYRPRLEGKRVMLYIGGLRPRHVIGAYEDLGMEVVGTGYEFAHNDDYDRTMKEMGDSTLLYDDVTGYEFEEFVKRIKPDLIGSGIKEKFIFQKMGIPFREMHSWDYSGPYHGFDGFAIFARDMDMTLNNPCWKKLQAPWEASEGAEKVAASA
T1 sequence 2: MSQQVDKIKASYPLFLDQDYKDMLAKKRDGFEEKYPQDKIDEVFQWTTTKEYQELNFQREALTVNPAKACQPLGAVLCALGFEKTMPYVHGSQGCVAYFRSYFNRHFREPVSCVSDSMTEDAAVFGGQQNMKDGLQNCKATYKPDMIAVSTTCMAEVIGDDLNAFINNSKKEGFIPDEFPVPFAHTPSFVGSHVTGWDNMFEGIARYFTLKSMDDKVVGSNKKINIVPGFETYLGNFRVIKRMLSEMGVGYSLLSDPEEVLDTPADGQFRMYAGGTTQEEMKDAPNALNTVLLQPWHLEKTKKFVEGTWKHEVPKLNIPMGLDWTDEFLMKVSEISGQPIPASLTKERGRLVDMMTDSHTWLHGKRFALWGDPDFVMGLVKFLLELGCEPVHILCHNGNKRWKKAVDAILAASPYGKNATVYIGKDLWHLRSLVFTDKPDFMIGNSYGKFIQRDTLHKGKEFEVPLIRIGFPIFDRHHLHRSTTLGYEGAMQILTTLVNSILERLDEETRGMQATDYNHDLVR

[2] = target: T2, Extant Strep-II-tagged NifD (nitrogenase molybdenum-iron protein alpha chain), Azotobacter vinelandii strain … (Azotobacter vinelandii, UniProt P07328 1-492); assay: co-purification (Strep-Tactin affinity chromatography) with densitometry of SDS-PAGE bands; Strep-II-tagged NifD captured on Strep-Tactin from A. vinelandii cells; NifK found with it on SDS-PAGE (Coomassie blue); anaerobic handling; settings: partners not purified
T2 construct: nitrogenase molybdenum-iron protein alpha chain NifD, Azotobacter vinelandii, UniProtKB P07328; expressed from the A. vinelandii genome; The end that carries the Strep-II tag is stated only for the ancestral NifD (N-terminus); also called Strep-II-tagged WT NifD; D subunit
T2 sequence (looked up): T1 sequence 1

inorganic phosphate released per electron transferred (Pi/e- ratio) during N2 reduction, 2 min under 1 atm N2; 0.42 µM NifD2K2 and 8.4 µM NifH2, 10 mM MgATP [1]: 2.8 ATP/e-
Molecule: Extant NifH2 (dinitrogenase reductase, nitrogenase iron protein 1), Azotobacter vinelandii strain DJ884 (from UniProt P00459 2-290) (enzyme)

stoichiometry N [2]: 0.93 D:K
B1: Extant NifK (nitrogenase molybdenum-iron protein beta chain), Azotobacter vinelandii strain DJ2102 (enzyme, UniProt P07329 1-523, looked up)
chain: T1 sequence 2
notes: nitrogenase molybdenum-iron protein beta chain NifK, Azotobacter vinelandii, UniProtKB P07329; also called K subunit
